Experiments:
[1] = target: HigA2Phd (Vibrio cholerae (globular domain); Phd IDR organism not stated) (UniProt Q9KMA5); assay: ITC; details: ITC: 20 mM sodium phosphate pH 7.0, 150 mM NaCl, 1 mM EDTA, 25 or 5 C; EMSA/footprint: 20 mM Tris pH 8, 200 mM NaCl; NMR: 20 mM sodium phosphate pH 6.8, 130 mM …
HigA2IDR = target: T1, HigA2IDR (Vibrio cholerae, UniProt Q9KMA5); assay: ITC; 25 C; ITC: 20 mM sodium phosphate pH 7.0, 150 mM NaCl, 1 mM EDTA, 25 or 5 C; EMSA/footprint: 20 mM Tris pH 8, 200 mM NaCl; NMR: 20 mM sodium phosphate pH 6.8, 130 mM; details: tags: C-terminal extra W; chain copies: 2
T1 chain: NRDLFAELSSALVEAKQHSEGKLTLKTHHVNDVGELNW

HigA2ΔIDR [2] = target: T2, HigA2ΔIDR (Vibrio cholerae, UniProt Q9KMA5, del1-36); assay: as above; details: protein: recombinant; tags: C-terminal His6, uncleavable; chain copies: 2
HigA2 [3] = target: T3, HigA2 (Vibrio cholerae, UniProt Q9KMA5); assay: as above; details: protein: recombinant; tags: C-terminal His6, uncleavable; chain copies: 2
[4] = target: the molecule itself; assay: crystal structure; HigA2 and the 17 bp operator fragment Opr17 mixed 1:1.2, 250 uM complex; sitting drop vapor diffusion; 0.2 M sodium chloride, 0.1 M Na HEPES pH 7.5, 12% (w/v) PEG 8000
HigA2 [5] = target: T3, HigA2; assay: X-ray crystallography; HigA2 dimer; residues 37-104 visible; ITC: 20 mM sodium phosphate pH 7.0, 150 mM NaCl, 1 mM EDTA, 25 or 5 C; EMSA/footprint: 20 mM Tris pH 8, 200 mM NaCl; NMR: 20 mM sodium phosphate pH 6.8, 130 mM; details: protein: recombinant; tags: C-terminal His6, uncleavable; chain copies: 2; blunt
HigA2Shuff = HigA2Shuff (Vibrio cholerae, UniProt Q9KMA5, IDR sequence shuffled); assay: ITC; 5 C; ITC: 20 mM sodium phosphate pH 7.0, 150 mM NaCl, 1 mM EDTA, 25 or 5 C; EMSA/footprint: 20 mM Tris pH 8, 200 mM NaCl; NMR: 20 mM sodium phosphate pH 6.8, 130 mM; details: protein: recombinant; tags: C-terminal His6, uncleavable; chain copies: 2
HigA2Mut(14-25) = HigA2Mut(14-25) (Vibrio cholerae, UniProt Q9KMA5, L14S;V15S;E16A;A17T;K18A;Q19S;H20G;S21A;E22T;G23A;K24S;L25S); assay: as above; details: protein: recombinant; tags: C-terminal His6, uncleavable; chain copies: 2
HigA2Mut(26-37) = HigA2Mut(26-37) (Vibrio cholerae, UniProt Q9KMA5, T26S;L27S;K28A;H30A;H31S;V32G;N33A;D34T;V35A;G36S;E37S); assay: as above; details: protein: recombinant; tags: C-terminal His6, uncleavable; chain copies: 2
HigA2ΔIDR [6] = target: T2, HigA2ΔIDR; assay: as above; details: protein: recombinant; tags: C-terminal His6, uncleavable; chain copies: 2
HigA2Mut(2-13) = HigA2Mut(2-13) (Vibrio cholerae, UniProt Q9KMA5, N3S;R4A;D5T;L6A;F7S;A8G;E9A;L10T;S11A;A13S); assay: as above; details: protein: recombinant; tags: C-terminal His6, uncleavable; chain copies: 2
HigA2 [7] = target: T3, HigA2; assay: as above; details: protein: recombinant; tags: C-terminal His6, uncleavable; chain copies: 2

## ATCTGTACGCTTGGTGCGTACACTT (double strand) [Opr25]
[1]
  Kd: 10000 nM

B1: Opr45 (dsDNA)
DNA 1: AATTCTTGCCATCTGTACGCTTGGTGCGTACACTTCCTATATGAA
DNA 2: TTCATATAGGAAGTGTACGCACCAAGCGTACAGATGGCAAGAATT
HigA2IDR
  binding result: no binding
HigA2ΔIDR [2]
  Kd: 400 ± 50 nM
HigA2 [3]
  Kd: 25.1 ± 5.2 nM

B2: HigA2 antitoxin from Vibrio cholerae (full-length, C-terminal histidine tag) (natural protein)
chain: MSNRDLFAELSSALVEAKQHSEGKLTLKTHHVNDVGELNISPDEIVSIREQFNMSRGVFARLLHTSSRTLENWEQGRSVPNGQAVTLLKLVQRHPETLSHIAEL
notes: Antitoxin HigA2 of the higBA2 toxin-antitoxin module, Vibrio cholerae; N-terminal disordered region (residues 2-36) and globular C-terminal HTH domain (residues 37-104); only residues 37-104 are seen in the crystal; The histidine tag is un-cleavable (pET21b, NdeI/XhoI); also called wild-type HigA2; full-length HigA2; not shown: histidine tag, C-terminal, kept
[4]
  stoichiometry N: 2

B3: Opr17 (dsDNA)
DNA 1: GTACGCTTGGTGCGTAC
DNA 2: GTACGCACCAAGCGTAC
HigA2 [5]
  binding result: binds

B4: Opr25 (dsDNA)
DNA 1: ATCTGTACGCTTGGTGCGTACACTT
DNA 2: AAGTGTACGCACCAAGCGTACAGAT
HigA2Shuff
  Kd: 37000 ± 20000 nM
HigA2Mut(14-25)
  Kd: 5100 ± 2400 nM
HigA2Mut(26-37)
  binding result: no binding
HigA2ΔIDR [6]
  Kd: 480 ± 160 nM
HigA2Mut(2-13)
  Kd: 390 ± 130 nM
HigA2 [7]
  Kd: 15 ± 3 nM
HigA2 [3]
  Kd: 13.8 ± 5.8 nM
